From patent publication US20250205308A1, “Supraparticles” (THE BIONICS INSTITUTE OF AUSTRALIA, priority 2017, published 2025)

Assay: In vivo clearance of radiolabelled neurotrophin-3 from the cochlea after supraparticle implantation (whole cochlear gamma counts)
Procedure: In vivo studies were carried out to determine the drug payload and clearance of neurotrophin delivered in a supraparticle implanted into the ear after 4 hr, 3 day and 7 days of implantation. The objective was to determine the amount of neurotrophin remaining in the cochlea over time.
1 SP containing radiolabelled neurotrophin-3 was implanted into each cochlea. Cochleae were harvested following 4 hrs (n=5), 3d (n=7) or 7d (n=4). Whole cochlear gamma counts were measured to determine the clearance of neurotrophin-3 over time. After 1 week of implantation each SP contained ˜2 μg of neurotrophin-3 (˜40%) of initial loaded amount.
Further experiments (n=2) were carried out to examine clearance of neurotrophin-3 following round window delivery. 3 days after implantation-whole cochlear measurements were again used to determine the clearance of neurotrophin-3 from the round window membrane.

[1] = 1 SP implanted into each cochlea, after 1 week of implantation

In the case of “neurotrophin-3: Radiolabelled neurotrophin delivered in a supraparticle implanted into the cochlea”, the “neurotrophin-3 remaining (% of initial loaded amount)” value [1] is reported as ~40%, the “neurotrophin-3 remaining per SP” value [1] is reported as ~2 µg and the neurotrophin-3 remaining (intracochlear delivery, 3 days) is reported as 56%. It also gave a neurotrophin-3 remaining (round window delivery, 3 days after implantation) of 47.4%.
